Results on one molecule are retold here after patent US20240239915A1 (Zymeworks, published 2024).

A value given as a limit tells only on which side of the number the result lay.

Assay [1] has as its target T1, Recombinant Human Fc gamma RIIIB/CD16b Protein (R&D Systems), His-tagged (human, UniProt O75015 20-208).
T1 construct: also called human FcγRIIIb; hFcγRIIIb
T1 chain: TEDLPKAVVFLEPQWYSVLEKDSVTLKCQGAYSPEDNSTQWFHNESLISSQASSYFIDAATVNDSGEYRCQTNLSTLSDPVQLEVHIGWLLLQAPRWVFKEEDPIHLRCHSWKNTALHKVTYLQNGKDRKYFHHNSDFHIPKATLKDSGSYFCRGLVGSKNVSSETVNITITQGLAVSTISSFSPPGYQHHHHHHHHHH
Description: SPR (Biacore T200); receptor immobilized directly on CM5 chip, antibody as analyte at 4.7 µM.

The target in assay [2] is T2, Recombinant Human Fc gamma RIIIA/CD16a (V176F) Protein (R&D Systems), His-tagged (human, UniProt P08637 17-208).
T2 construct: no further substitution applied; also called human FcγRIIIa (V176F); hFcγRIIIa (V176F)
T2 sequence (P08637 other isoform, or with tags, fused parts or gaps V176F V176F): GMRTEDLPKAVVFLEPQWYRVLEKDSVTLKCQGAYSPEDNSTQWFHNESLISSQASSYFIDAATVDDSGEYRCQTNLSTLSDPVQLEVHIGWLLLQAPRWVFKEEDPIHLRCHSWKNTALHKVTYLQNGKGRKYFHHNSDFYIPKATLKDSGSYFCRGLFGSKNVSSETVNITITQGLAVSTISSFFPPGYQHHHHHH
The assay is described as above.

The target in assay [3] is T3, Recombinant Human Fc gamma RIIB/C (CD32b/c) Protein (R&D Systems), His-tagged (human, UniProt P31994 46-217).
T3 construct: also called human FcγRIIb/c; hFcγRIIb/c
T3 sequence: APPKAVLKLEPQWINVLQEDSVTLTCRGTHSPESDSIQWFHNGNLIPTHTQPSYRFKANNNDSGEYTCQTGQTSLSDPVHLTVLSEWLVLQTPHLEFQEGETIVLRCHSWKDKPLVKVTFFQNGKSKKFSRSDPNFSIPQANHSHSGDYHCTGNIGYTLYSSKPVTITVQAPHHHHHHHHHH
The description is as above.

Assay [4] addresses T4, Recombinant Human Fc gamma RIIIA/CD16a protein (R&D Systems), His-tagged (human, UniProt P08637 17-208).
T4 construct: also called human FcγRIIIa; hFcγRIIIa
The description is as above.

The target in assay [5] is T5, Recombinant Human Fc gamma RIIA/CD32a (H167) Protein (R&D Systems), His-tagged (human, UniProt P12318 34-218).
T5 construct: also called human FcγRIIa (H167); hFcγRIIa (H167)
T5 sequence: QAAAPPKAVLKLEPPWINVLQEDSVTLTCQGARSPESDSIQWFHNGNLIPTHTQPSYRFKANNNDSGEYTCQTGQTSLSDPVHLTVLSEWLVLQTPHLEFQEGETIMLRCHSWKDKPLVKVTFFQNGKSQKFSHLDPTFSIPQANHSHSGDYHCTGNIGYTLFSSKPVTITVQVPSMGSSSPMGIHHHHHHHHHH
Described as above.

Assay [6] deals with T6, human FcRn (human neonatal Fc receptor large subunit p51 and beta2-microglobulin), biotinylated (human, UniProt P55899 24-297; P61769 21-119, biotinylated (site not stated)). Description: BLI (Octet RED384), biotinylated FcRn on streptavidin biosensor, binding at pH 6.0, dissociation at pH 7.4. A general note: In BLI a coated tip is dipped into the sample, and binding shifts an interference pattern.
T6 sequence (P55899 24-297 limits assumed, chain 1 of 2): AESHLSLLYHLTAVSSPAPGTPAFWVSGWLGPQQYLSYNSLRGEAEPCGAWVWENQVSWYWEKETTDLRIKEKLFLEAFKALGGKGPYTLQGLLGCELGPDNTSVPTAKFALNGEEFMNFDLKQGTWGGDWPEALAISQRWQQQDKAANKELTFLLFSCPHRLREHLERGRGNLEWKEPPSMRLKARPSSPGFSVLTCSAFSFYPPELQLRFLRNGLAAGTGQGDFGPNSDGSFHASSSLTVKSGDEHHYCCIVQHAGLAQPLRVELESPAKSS
T6 sequence (P61769 21-119 limits assumed, chain 2 of 2): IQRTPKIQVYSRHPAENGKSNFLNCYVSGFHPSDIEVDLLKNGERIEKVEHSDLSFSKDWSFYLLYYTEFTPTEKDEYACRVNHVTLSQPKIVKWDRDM

Assay [7] deals with T7, Recombinant Cynomolgus Fc gamma RIII/CD16 Protein (R&D Systems), His-tagged (cynomolgus, UniProt Q8SPW2 17-208).
T7 construct: also called cynomolgus FcγRIII; cFcγRIII
T7 chain: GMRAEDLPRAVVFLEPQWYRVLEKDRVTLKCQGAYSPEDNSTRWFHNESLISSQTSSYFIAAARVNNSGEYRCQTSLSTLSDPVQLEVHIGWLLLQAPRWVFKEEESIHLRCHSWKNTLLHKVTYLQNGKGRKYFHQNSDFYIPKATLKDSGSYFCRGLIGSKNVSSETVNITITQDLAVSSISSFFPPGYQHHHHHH
Description: SPR (Biacore T200); receptor immobilized directly on CM5 chip, antibody as analyte at 4.7 µM.

Assay [8] concerns the target T8, Recombinant Cynomolgus Fc gamma RIIB protein (R&D Systems), His-tagged (cynomolgus).
T8 construct: also called cynomolgus FcγRIIb; cFcγRIIb
T8 chain: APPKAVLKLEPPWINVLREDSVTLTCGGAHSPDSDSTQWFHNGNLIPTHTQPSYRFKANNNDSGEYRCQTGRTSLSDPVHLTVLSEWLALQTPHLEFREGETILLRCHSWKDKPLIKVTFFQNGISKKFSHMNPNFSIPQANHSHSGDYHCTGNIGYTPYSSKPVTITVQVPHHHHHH
Described as above.

Assay [9] has as its target T9, Recombinant Cynomolgus Fc gamma RIIA/CD32a Protein (R&D Systems), His-tagged (cynomolgus).
T9 construct: also called cynomolgus FcγRIIa; cFcγRIIa
T9 chain: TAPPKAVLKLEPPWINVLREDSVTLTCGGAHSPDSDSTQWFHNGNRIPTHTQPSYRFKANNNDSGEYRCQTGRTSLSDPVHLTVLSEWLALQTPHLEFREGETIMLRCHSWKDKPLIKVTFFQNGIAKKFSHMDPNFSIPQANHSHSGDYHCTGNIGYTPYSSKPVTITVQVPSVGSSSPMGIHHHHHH
Described as above.

In assay [10] the target is T6, human FcRn (human neonatal Fc receptor …). Description: BLI (Octet RED384), biotinylated FcRn on streptavidin biosensor, binding and dissociation at pH 6.0.
The target in assay [11] is T10, Recombinant Human Fc gamma RI/CD64 Protein, CF (R&D Systems), His-tagged (human, UniProt P12314 16-288).
T10 construct: also called human FcγRI; hFcγRI
T10 sequence (P12314 other isoform, or with tags, fused parts or gaps): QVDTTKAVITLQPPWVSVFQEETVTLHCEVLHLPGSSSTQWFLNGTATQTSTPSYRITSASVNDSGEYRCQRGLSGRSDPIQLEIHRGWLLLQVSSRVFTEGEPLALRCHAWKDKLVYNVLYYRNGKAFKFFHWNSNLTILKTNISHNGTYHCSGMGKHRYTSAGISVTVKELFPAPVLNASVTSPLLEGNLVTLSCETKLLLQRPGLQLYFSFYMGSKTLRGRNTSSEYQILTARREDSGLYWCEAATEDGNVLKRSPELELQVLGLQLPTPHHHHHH
The assay can be described thus: SPR (Biacore T200), RU at 4.7 µM antibody.

Assay [12] addresses T5, Recombinant Human Fc gamma RIIA/CD32a …. Description: SPR (Biacore T200), RU at 4.7 µM antibody.

T4 sequence (P08637 other isoform, or with tags, fused parts or gaps): as the sequence (P08637 other isoform, or with tags, fused parts or gaps V176F V176F) above, with F160V counted along it

B1: L234A/L235A/D265G (LALA-DG) variant of IgG1 WT of the anti-EGFR antibody panitumumab (antibody)
heavy: QVQLQESGPGLVKPSETLSLTCTVSGGSVSSGDYYWTWIRQSPGKGLEWIGHIYYSGNTNYNPSLKSRLTISIDTSKTQFSLKLSSVTAADTAIYYCVRDRVTGAFDIWGQGTMVTVSSASTKGPSVFPLAPSSKSTSGGTAALGCLVKDYFPEPVTVSWNSGALTSGVHTFPAVLQSSGLYSLSSVVTVPSSSLGTQTYICNVNHKPSNTKVDKRVEPKSCDKTHTCPPCPAPEAAGGPSVFLFPPKPKDTLMISRTPEVTCVVVGVSHEDPEVKFNWYVDGVEVHNAKTKPREEQYNSTYRVVSVLTVLHQDWLNGKEYKCKVSNKALPAPIEKTISKAKGQPREPQVYTLPPSREEMTKNQVSLTCLVKGFYPSDIAVEWESNGQPENNYKTTPPVLDSDGSFFLYSKLTVDKSRWQQGNVFSCSVMHEALHNHYTQKSLSLSPGK
light: not shown
notes: Mutations in both CH2 domains; positions are EU numbers
Take B1: the “binding response (RU)” value in assay [1] is -0.3 RU; in assay [2], -4.4 RU; in assay [3], 15 RU; in assay [4], -2.7 RU; in assay [5] it was 8.8 RU; in assay [7] it was 3.8 RU. The “binding response (RU)” value was found to be 89 RU in assay [8] and 19 RU in assay [9]. The off-rate constant (koff) in [6] amounted to 2.2 s⁻¹. For the same molecule, binding in [10] was put at a Kd of 5.8 nM. Further, the “RU value relative to the LALA-DA variant” value in assay [11] is approximately 0.1 fold. The “RU value relative to the other variants” value in assay [12] was not above 0.5 fold.

What is called koff is the first-order rate constant of dissociation. Low values mean a long-lived complex, high ones a short-lived complex. The Kd is the equilibrium constant for the complex coming apart.
